Test results reported in patent publication US20130225478A1 (YEDA RESEARCH AND DEVELOPMENT, published 2013).
Ends that are not written are not given here.

T1: mTLR1 TM N′ (mouse, N-terminal fluorescein (FRET donor) or N-terminal rhodamine (TAMRA) label, depending on the assay; synthesized on Rink amide MBHA resin)
T1 construct: Synthetic peptide; Tested in PC:Cholesterol LUVs or HEPES buffer; also called mTLR1 N′ TM; TLR1 TM N-terminus peptide
T1 peptide: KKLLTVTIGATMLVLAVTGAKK

T2: mTLR1 TM C′-CtoA (mouse, N-terminal fluorescein (FRET donor) or N-terminal rhodamine (TAMRA) label, depending on the assay; synthesized on Rink amide MBHA resin)
T2 construct: Synthetic peptide; Tested in PC:Cholesterol LUVs or HEPES buffer; also called mTLR1 C′ TM (C to A); TLR1 TM C-terminus peptide
T2 peptide: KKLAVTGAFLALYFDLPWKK

B1: Cp, the core TM peptide of TCRα (peptide)
peptide: GLRILLLKV-NH2
modifications: also: rhodamine label
notes: Negative control in the FRET experiments; also called TCRα TM domain peptide
B2: LL37 (peptide, UniProt P49913 134-170, looked up)
peptide: LLGDFFRKSKEKIGKEFKRIVQRIKDFLRNLVPRTES
modifications: also: rhodamine label
notes: Positive control of the self-assembly assay; LL-37 is the C-terminal 37 residues of the cathelicidin precursor; also called oligomeric antimicrobial peptide LL37

Tests used:
mTLR1 TM N′ = target: T1, mTLR1 TM N′; test: FRET in PC:Cholesterol LUVs, fluorescein-mTLR1 TM N′ donor, rhodamine-Cp acceptor (FIG. 3A)
Description: FIGS. 3A-3C show FRET between mTLR1 TM N′ (SEQ ID NO:77) and other TM peptides. mTLR1 TM N′ peptide labeled with fluorescein (donor) and loaded on PC:Cholesterol LUVs. Changes in the intensity of the emission signal were monitored between 500 to 600 nm, upon the addition of successive amounts of rhodamine labeled mTLR1 TM N′ (SEQ ID NO:77; homodimers, 3B) and mTLR2 TM N′-CtoA (SEQ ID NO:88; heterodimers, 3C). Rhodamine labeled TCRα TM domain peptide (Cp; […]-NH2, SEQ ID NO:123) was used as a negative control (3A).
(§1) Large unilamellar vesicles (LUVs) composed of phosphatidylcholine (PC) and cholesterol (10:1, w/w), were prepared using the extrusion method as described previously (Cohen et al, 2008). The fluorescence experiments were performed with pairs of peptides using fluorescein labeled peptides as donors and rhodamine labeled peptides as acceptors. Fluorescence spectra were obtained at room temperature, with excitation set at 494 nm (10 nm slit) and emission scan at 500-600 nm (10 nm slits), by a Cary eclipse fluorescence spectrophotometer (Varian Inc., Palo Alto, Calif.). […] Fluorescence spectra were obtained before and after the addition of the rhodamine labeled peptides. Fluorescence values were corrected by subtracting the changes in emission obtained by adding HEPES only. […]

mTLR1 TM C′-CtoA = target: T2, mTLR1 TM C′-CtoA; test: FRET in PC:Cholesterol LUVs, fluorescein-mTLR1 TM C′-CtoA donor, rhodamine-Cp acceptor (FIG. 2A)
Description: FIGS. 2A-2C show fluorescence resonance energy transfer (FRET) between mTLR1 TM C′-CtoA (SEQ ID NO:83) and other TM peptides. mTLR1 TM C′ peptide was labeled with fluorescein (Donor) and loaded on PC:Cholesterol large unilamellar vesicles (LUVs). Changes in the intensity of the emission signal were monitored between 500 to 600 nm, upon the addition of successive amounts of rhodamine labeled mTLR1 TM C′-CtoA (SEQ ID NO:83; homodimers, 2B) and mTLR2 TM C′-CtoA (SEQ ID NO:86; heterodimers, 2C). Rhodamine labeled TCRα TM domain peptide (Cp; […]-NH2, SEQ ID NO:123) was used as a negative control (2A).
as §1

[1] = target: the molecule itself; test: self-assembly assay, rhodamine dequenching after proteinase K, PC:Cholesterol LUVs (FIG. 7D)
Procedure: (7A-7B) Rhodamine conjugated TLR peptides mTLR2 TM N′-CtoA (SEQ ID NO:88), mTLR2 TM C′-CtoA (SEQ ID NO:86), mTLR1 TM N′ (SEQ ID NO:77) and mTLR1 TM C′-CtoA (SEQ ID NO:83), were added to HEPES solution and their emission at 585 nm was recorded before and after the addition of proteinase K. The addition of the proteinase K is indicated by a black arrow. mTLR1 TM C′-CtoA (SEQ ID NO:83), mTLR1 TM N′ (SEQ ID NO:77) and mTLR2 TM C′-CtoA (SEQ ID NO:86) are capable to self assemble in solution, to a very slight extent (7A). mTLR2 TM N′-CtoA (SEQ ID NO:88) highly oligomerise in solution (black line, 7B) and is partially dissociated in the presence of LUVs (gray line, 7B). […] LL37 is shown as an example for a peptide that is highly oligomerised in liposomes (7D).
We have tested this characteristic, both in solution and on a membrane interface. We measured the initial emission of rhodamine labeled peptides at 580 nm in solution only, or in a solution containing PC:Cholesterol LUVs, and then followed the increase of the emission over time after the addition of protease-K to the medium. […] The known oligomeric antimicrobial peptide LL37 (Rosenfeld et al., 2006a) was used as a positive control.

| Binder | binding result (mTLR1 TM N′) | binding result (mTLR1 TM C′-CtoA) | binding result [1] |
| --- | --- | --- | --- |
| B1 | no binding | no binding |  |
| B2 |  |  | binds |
